US20130295021A1 (published 2013)
Residue numbers refer to the chain shown, from its start. Names may count otherwise. Values belong to the binder of their own block, whether it stands above or below them. Non-standard residues stand in square brackets, D forms with d. No end group written: not given here. pT = C[C@@H](OP(=O)(O)O)[C@H](N)C(=O)O

Assays:
[1] = target: T1, recombinant human tau, isoform Tau-F of 441aa (hTau40) (human, UniProt P10636 1-758); test: direct ELISA, hTau40 coated at 1 ug/ml; hTau40 coated at 1 ug/ml
T1 construct: Bought from rPeptide (Bogart, USA); also called full-length tau; rTau
Experimental: (§1) 96 well microplates (Costar, Corning, USA) were coated with recombinant Tau protein (hTau40, rPeptide, Bogart, USA) diluted to a concentration of 1 μg/ml in carbonate ELISA coating buffer (50 mM, pH9.6) at 4° C. over night. Non-specific binding sites were blocked for 2 hr at RT with PBS containing 2% BSA (Sigma, Buchs, Switzerland) and 0.5% Tween20. […] EC₅₀ values were estimated by a non-linear regression using GraphPad Prism software (San Diego, USA).
(§2) ELISA plates were coated with recombinant human tau (hTau40, 1 ug/ml), PHFTau (1:100) and control preparation (1:100), and incubated with varying antibody concentrations.

[2] = target: T2, His-tagged tau domain III (AA 235-373 of hTau40) (human, UniProt P10636 552-690); test: Western blot
T2 construct: Expressed in E. coli BL21 (DE3) and purified on Ni-NTA
Experimental: (§3) DNA fragments, synthesized using GeneArt® (Invitrogen), which encode each Tau domain with 6×His tagged at the N-terminus were cloned into the pRSET-A expression vector (Invitrogen), were transfected into E. Coli BL21 (DE3) (New England Biolabs). The expressions of the His-tagged Tau domains were induced by 0.5 mM IPTG for six hours before bacteria were lysed with lysozyme with sonication. The lysate was boiled for five minutes before being further purified with Ni-NTA Superflow Columns (Qiagen). The eluted His-tagged Tau domains were coated on ELISA plates or loaded on polyacrylamide gel for Western Blot. These sequentially overlapping tau domain polypeptides cover the full length of hTau40 (FIG. 13A).

[3] = target: T3, His-tagged tau domain II (AA 136-258 of hTau40) (human, UniProt P10636 387-575); test: Western blot
T3 construct: Expressed in E. coli BL21 (DE3) and purified on Ni-NTA
Experimental: as §3

[4] = target: T4, His-tagged tau domain IV (AA 355-441 of hTau40) (human, UniProt P10636 672-758); test: Western blot
T4 construct: Expressed in E. coli BL21 (DE3) and purified on Ni-NTA
Experimental: as §3

[5] = target: T5, PHFTau, paired helical filaments containing pathologically phosphorylated tau filaments extracted from AD … (human, UniProt P10636-8 1-441, limits assumed, pathologically phosphorylated; sites not given); test: direct ELISA, PHFTau coated at 1:100; PHFTau coated at 1:100
T5 construct: Brain extract, aggregated and phosphorylated; also called pathologically modified tau isoforms
Experimental: as §2

[6] = target: T6, bovine serum albumin (BSA) (UniProt P02769 25-607); test: direct ELISA, plates coated with BSA
T6 construct: Control antigen
Experimental: To validate tau as a recognized target of isolated antibodies direct ELISA assays were performed as described above. […] No binding is observed to BSA (FIG. 10).

[7] = target: T1, recombinant human tau, isoform Tau-F of …; test: ELISA on recombinant tau (FIG. 15)
[8] = target: T1, recombinant human tau, isoform Tau-F of …; test: ELISA on recombinant tau
[9] = target: T1, recombinant human tau, isoform Tau-F of …; test: direct ELISA, hTau40 coated at 1 µg/ml (legend of FIG. 2)
Experimental: as §1
(§4) The EC₅₀ values were estimated by a non-linear regression using GraphPad Prism software.

[10] = target: T1, recombinant human tau, isoform Tau-F of …; test: direct ELISA, hTau40 coated at 1 µg/ml
Experimental: as §1, §4

[11] = target: T7, peptide corresponding to amino acids 333-346 of hTau40 with an additional C-terminal cysteine (human); test: direct ELISA on coated peptide (legend of FIG. 5)
T7 peptide: GGGQVEVKSEKLDFC

[12] = target: T8, peptide corresponding to amino acids 226-239 of human tau (226VAVVRpTPPKSPSSA239), cognate epitope of AT180 (human); test: direct ELISA on coated peptide
T8 peptide: VAVVR[pT]PPKSPSSA

[13] = target: T1, recombinant human tau, isoform Tau-F of …; test: direct ELISA, hTau40 coated at 3 µg/ml (legend of FIG. 7)
Excerpt: as §4

[14] = target: T1, recombinant human tau, isoform Tau-F of …; test: direct ELISA, hTau40 coated at 3 µg/ml
Excerpt: as §4

T1 sequence (P10636 other isoform, or with tags, fused parts or gaps limits assumed): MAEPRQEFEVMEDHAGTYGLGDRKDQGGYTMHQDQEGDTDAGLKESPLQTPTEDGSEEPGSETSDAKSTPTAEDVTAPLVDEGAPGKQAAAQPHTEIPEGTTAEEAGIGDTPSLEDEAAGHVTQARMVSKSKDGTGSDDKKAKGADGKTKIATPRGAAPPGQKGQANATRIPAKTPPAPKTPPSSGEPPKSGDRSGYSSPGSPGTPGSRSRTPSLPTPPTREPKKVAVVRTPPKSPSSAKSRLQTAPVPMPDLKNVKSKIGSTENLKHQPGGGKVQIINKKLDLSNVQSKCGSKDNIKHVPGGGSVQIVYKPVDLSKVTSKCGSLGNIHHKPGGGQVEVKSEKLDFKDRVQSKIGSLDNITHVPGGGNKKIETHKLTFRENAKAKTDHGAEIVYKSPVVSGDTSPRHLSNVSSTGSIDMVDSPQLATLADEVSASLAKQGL
T2 sequence (P10636 other isoform, or with tags, fused parts or gaps): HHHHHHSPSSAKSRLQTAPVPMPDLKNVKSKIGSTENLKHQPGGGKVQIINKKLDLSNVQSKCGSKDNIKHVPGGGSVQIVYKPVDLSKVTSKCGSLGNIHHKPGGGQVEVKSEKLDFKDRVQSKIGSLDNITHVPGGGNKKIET
T4 sequence (P10636 other isoform, or with tags, fused parts or gaps): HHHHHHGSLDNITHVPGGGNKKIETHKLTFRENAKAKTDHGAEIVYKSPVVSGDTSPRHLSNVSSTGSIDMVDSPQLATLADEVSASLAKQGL
T5 sequence (P10636 other isoform, or with tags, fused parts or gaps limits assumed): as the sequence (P10636 other isoform, or with tags, fused parts or gaps limits assumed) above
T6 sequence (P02769 25-607 limits assumed): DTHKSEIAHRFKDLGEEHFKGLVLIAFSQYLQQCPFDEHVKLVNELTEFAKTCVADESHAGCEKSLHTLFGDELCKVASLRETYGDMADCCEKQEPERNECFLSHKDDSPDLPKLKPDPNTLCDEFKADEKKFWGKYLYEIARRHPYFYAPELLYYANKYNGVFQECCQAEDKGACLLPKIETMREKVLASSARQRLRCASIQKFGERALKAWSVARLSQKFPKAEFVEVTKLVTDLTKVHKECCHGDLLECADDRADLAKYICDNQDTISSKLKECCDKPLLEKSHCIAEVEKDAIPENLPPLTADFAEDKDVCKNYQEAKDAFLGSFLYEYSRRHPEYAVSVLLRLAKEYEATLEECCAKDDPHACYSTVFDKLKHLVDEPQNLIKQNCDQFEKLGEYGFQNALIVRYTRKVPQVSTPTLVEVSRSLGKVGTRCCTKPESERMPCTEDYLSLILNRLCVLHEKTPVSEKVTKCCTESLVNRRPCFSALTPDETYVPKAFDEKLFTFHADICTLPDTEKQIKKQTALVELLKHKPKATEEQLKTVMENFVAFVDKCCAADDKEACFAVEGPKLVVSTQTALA
T3 sequence (P10636 other isoform, or with tags, fused parts or gaps): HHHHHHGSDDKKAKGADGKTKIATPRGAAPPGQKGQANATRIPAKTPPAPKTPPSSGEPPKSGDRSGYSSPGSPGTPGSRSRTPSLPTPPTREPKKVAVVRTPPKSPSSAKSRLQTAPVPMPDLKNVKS

B1: recombinant human tau antibody NI-105.4A3 (antibody, human IgG1, V domains shown)
VH: QVQLVESGGGAVQPGGSLRLSCAASGFTFSDYAMHWVRQAPGKGLQWVAVISYEGTYKYYADSVKGRFTISRDNSKNTLNLQMSSLRVEDTAVYFCVKARAFASGQRSTSTVPDYWGQGTLVTVSS
VL: SYELTQPPSVSVSPGQTARITCSGDALPKKYAYWYQQKSGQAPVLVIYEDNKRPSGIPERFSGSSSGTVATLTISGAQVDDEADYYCYSTDISGDLRVFGGGTKLTVL
EC50 [1]: 1.4 nM | binding result [2]: no binding | binding result [3]: no binding | binding result [4]: no binding | EC50 [5]: 1.2 nM | binding result [6]: no binding

B2: ch4E4(N30Q), mouse IgG2a/lambda (antibody, V domains shown)
VH: EVQLVESGGGLVQPGGSLKLSCAASGFNFQISAIHWVRQASGKGLEWVGRIRSKSHNYATLYAASLKGRFTLSRDDSRNTAYLQMSSLQTEDMAVYYCTVLSANYDTFDYWGQGTLVTVSS
VL: SYELTQPPSVSVSPGQTARISCFGDTLPKQYTYWYQQKPGQAPVLVIYKDTERPSGIPERFSGSSSGTTVTLTISGVQAEDEADYYCLSADNSATWVFGGGTKVTVLG
notes: Produced in and purified from CHO cells; also called the modified antibody
fold higher apparent binding affinity relative to the original, glycosylated antibody (ch4E4) [7]: ~4 fold | EC50 (read off the curve) [8]: ~0.04 µg/mL

B4: ch4E4(N30Q) mIgG1 Agly (antibody, V domains shown)
VH: B2 VH
VL: B2 VL
notes: also called ch4E4(N30Q) IgG 1-Agly; mouse chimeric aglycosylated variant of 4E4
EC50 (read off the curve) [8]: ~0.04 µg/mL

B5: chimeric 4E4 (ch4E4), mouse IgG2a/lambda (antibody, V domains shown)
VH: B2 VH with Q30N
VL: B2 VL
modifications: N-glycan on Asn-30 (fully occupied on CHO expression)
notes: also called original, glycosylated antibody
EC50 (read off the curve) [8]: ~0.2 µg/mL

Further lines, results first:

EC50 [9]: 2 nM | EC50 [10]: 2.4 nM | binding result [11]: binds | binding result [12]: no binding
B3: recombinant human tau antibody NI-105.4E4 (antibody, V domains shown)
VH: B2 VH with Q30N
VL: SYELTQPPSVSVSPGQTARISCFGDTLPKQYTYWYQQKPGQAPVLVIYKDTERPSGIPERFSGSSSGTTVTLTISGVQAEDEADYYCLSADNSATWVFGGGTKVTVL

EC50 [13]: 6 nM | EC50 [14]: 6.6 nM
B6: recombinant human tau antibody NI-105.24B2 (antibody, human IgG1, V domains shown)
VH: QVQLVQSGAEVKKPGASVKVSCKASGYTFVNYIIHWVRQAPGQGLEWMGIINPNGGNTSYAEKFQARVTLTSDTSTSTVYMDLSSLTSEDTAVYYCAVLSPSNPWGQGTTVTVSS
VL: SYELTQPPSVSVSPGQTAGITCSGDALPKQFVYWYQKKPGQAPVLLIYKDTERPSRIPERFSGSTSGTTVALTINGVQAEDEADYYCQSADRSGALWVFGGGTKLTVL
